From the supplement of paper PMC10567573

B1: ANKRD40 (parent)
chain: VRIQNPSLRENDFIEIELDRQELT
B2: TRIM55 (parent)
chain: FQMEKIEHGYENMNHFTVNLNREE

Variants of: B1
Test: protein stability index of a GFP-peptide fusion (GPS, HEK-293T) (PSI 1-6); higher = more stable
Conditions: c terminus: a fixed tail appended
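Also: lentivirally expressed fusions sorted by FACS into six bins by GFP to DsRed ratio, PSI derived from sequencing read proportions per bin multiplied by bin number.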

Protein stability index, by site and new letter:
T24: D 3.24, V 2.2, Q 3.03, W 1.73, C 2.14, Y 1.59, I 2.19, K 2.3, S 2.85, H 2.63, A 2.3, L 2.09, E 3.16, N 2.48, F 1.88, M 2.19, G 2.92, R 2.79, P 2.49
L23: H 3.92, T 3.52, A 3.58, F 2.07, S 3.89, V 2.95, R 3.73, E 4.27, D 4.25, Q 3.44, K 3.69, I 2.45, G 3.99, P 3.26, Y 2.48, C 2.8, M 2.77, W 2.42, N 3.69
R20: W 1.48, E 2.42, N 2.77, G 2.56, A 2.31, F 2.96, Q 2.57, C 2.12, Y 1.84, I 2.82, S 2.08, P 1.76, V 2.29, H 2.32, K 2.75, L 2.81, M 2.92, T 1.78, D 2.75
L18: W 1.82, Y 3.03, V 2.85, Q 4.7, S 4.81, T 4.51, R 4.37
D19: E 2.8, T 1.94, A 1.93, C 1.89, V 1.92, H 1.69, I 1.91, Q 2.42, P 2.65, M 1.65, S 1.92, F 1.56, N 1.94, L 2.22, R 2.41, G 1.8, Y 1.83, W 1.54, K 2.24
Q21: S 2.08, K 2.24, F 1.77, D 1.84, T 2.47, E 2.82, R 2.24, H 2.12, G 2.32, M 2.01, L 1.8, W 1.73, C 2.15, Y 2.32, I 1.31, P 2.46, V 1.76, A 2.05, N 2.99
E22: V 2.1, N 2.34, M 1.93, H 2.57, W 1.82, Y 2.37, A 2.36, I 2.73, S 2.1, F 2.47, K 2.28, P 2.34, Q 1.86, G 1.92, D 2.87, T 2.06, C 1.68, L 2.61, R 2.65

Variants of: B2
Test: as above
Conditions: c terminus: a fixed tail appended

Protein stability index of substitutions, site by site:
F1: N 5.02, A 4.71, W 3.78, V 4.19, Q 4.85, R 4.45, P 4.65, K 4.17, T 4.67, I 4.23, D 4.61, Y 3.3, H 4.58, G 4.78, L 4.05, C 3.72, S 4.48, E 5.1, M 4.27
M3: K 2.68, A 2.57, E 5.07, C 2.83, H 3.43, G 3.62, D 4.53, F 2.86, I 2.82
Q2: K 3.49, L 2.96, M 3.42, A 3.14, S 3.98, C 2.57, N 3.8, I 2.06, T 3.35, D 4.1, W 2.62, E 4.49, P 3.86, F 2.69, R 3.07, G 3.7, H 2.28, Y 2.52
